In paper PMC13462943:

Biological target: SAM
Assay: native mass spectrometry
Conditions: protein and substrate concentrations 5 µM

GLP methyltransferase domain (aa 1001-1266), wild type (from UniProt Q9H9B1-1) C1073Y
other: relative abundance, 1x SAM bound (parent: 11): 18 | other: relative abundance, free protein (parent: 88): 80
